Laboratory results taken from the Human Domainome abundance scans (Beltran et al. 2025).

B1: Peroxisome proliferator-activated receptor delta, residues 71 to 145; numbered along this chain, Q03181 (parent)
chain: NMECRVCGDKASGFHYGVHACEGCKGFFRRTIRMKLEYEKCERSCKIQKKNRNKCQYCRFQKCLALGMSHNAIRF

Variants of: B1
Test: abundance fitness (aPCA) (normalised: wild type 0, dead -1); higher = more abundant; growth selection in yeast, the domain comes from the species named
Conditions: Homo sapiens

Abundance fitness, by site and new letter:
R59: C -0.442 | N -0.704 | E -0.933 | M -0.023 | A -0.459 | K -0.199 | T -0.218 | Y 0.107 | G -0.867 | S -0.928 | F -0.042 | L 0.098 | V -0.472 | W 0.204 | H -0.005 | D -0.361 | P -0.903 | I -0.837
M68: C -0.9 | F -0.529 | S -0.746 | G -0.822 | V -0.652 | H -0.771 | R -0.698 | N -0.81 | L -0.725 | Q -0.668 | W -0.148 | I -0.703 | K -0.769 | Y -0.718 | P -0.64 | T -0.769 | D -0.696 | E -0.794
Y57: Q -0.862 | I -0.919 | V -0.675 | K -0.507 | L -0.765 | P -0.961 | A -0.355 | M -0.867 | N -0.946 | T -0.77 | F -0.186 | R -0.671 | C -0.305 | S -0.35 | E -0.601 | D -0.335 | W -0.125 | H -0.177 | G -0.746
L64: M -0.188 | T -0.288 | C -0.16 | P -0.838 | A -0.38 | S -0.648 | E -0.397 | I -0.037 | G -0.805 | V -0.022 | W -0.755 | N -0.906 | D -0.83 | R -0.391 | H -0.274 | F -0.828 | Q -0.162
K62: I -0.245 | A -0.056 | M -0.328 | Q -0.293 | D -0.671 | V -0.569 | R -0.193 | P -0.824 | W -0.646 | F -0.418 | H -0.522 | G -0.661 | E -0.447 | C -0.543 | Y -0.441 | S -0.645 | L -0.318 | T -0.234
H70: I 0.198 | S 0.015 | P 0.185 | C -0.206 | K 0.019 | W -0.177 | Y -0.162 | V 0.099 | D 0.394 | Q 0.108 | M 0.09 | A 0.02 | E 0.172 | G 0.048 | T 0.157 | F 0.039 | R 0.063 | N 0.013
K54: E 0.122 | M 0.052 | D -0.02 | S -0.079 | H -0.059 | P -0.037 | T -0.017 | L -0.046 | W -0.036 | Y 0.17 | A 0.009 | I -0.031 | V -0.037 | Q -0.012 | F 0.065
F60: D -0.633 | P -0.802 | K -0.742 | E -1.03 | L -0.027 | Y -0.223 | Q -1.04 | H -0.528 | C -0.84 | R -0.798 | V -0.622 | S -0.557 | I -0.399 | W -0.003 | M -0.073 | A -0.941 | T -0.549
L66: P -0.681 | C -0.15 | W -0.629 | S 0.03 | E 0.067 | Q 0.014 | H -0.436 | N -0.014 | A -0.077 | R -0.315 | M 0.109 | Y -0.345 | V 0.113 | I 0.106 | G -0.419 | K -0.018 | D -0.521 | T 0.086 | F -0.438
Q56: D 0.189 | E 0.077 | P -0.025 | I -0.599 | C 0.005 | M -0.066 | R -0.227 | F -0.079 | W -0.341 | L -0.031 | Y -0.116 | N -0.145 | G 0.002 | K -0.214 | S 0.008 | A 0.074 | T -0.321
A65: N -0.026 | R -0.086 | K -0.073 | H -0.288 | I -0.162 | S -0.011 | V -0.075 | Q -0.001 | Y -0.301 | G -0.185 | D 0.092 | L -0.098 | W -0.231 | T -0.073 | F -0.19 | P -0.819 | C -0.295 | E -0.003
R52: P 0.128 | Y 0.012 | V 0.07 | S -0.022 | Q -0.03 | N -0.084 | T -0.012 | W -0.286 | M -0.078
C55: D -1.39 | H -0.441 | I -0.67 | F -0.824 | W -0.858 | R -0.868 | P -0.864 | S -0.823 | Y -0.676 | E -1.03 | T -0.393 | L -0.98 | G -0.807 | M -0.827 | K -0.646 | V -1.03 | A -0.806
S69: P -0.461 | M 0.029 | V -0.057 | K 0.023 | F -0.268 | Q 0.088 | W -0.191 | A -0.007 | E 0.022 | G -0.001 | C -0.138 | D 0.147 | R -0.162 | Y -0.213 | H -0.045 | N -0.118 | T -0.013 | L -0.053
N53: H -0.152 | E 0.123 | M -0.067 | C -0.274 | L -0.217 | R -0.185 | Q -0.152 | W -0.127 | D -0.08 | F -0.083 | I -0.051 | P -0.468 | T -0.112 | K -0.104 | Y -0.249 | G -0.033 | S -0.005 | A -0.086
N71: F -0.477 | E 0.142 | D 0.103 | H -0.173 | C -0.246 | A -0.036 | G -0.038
C63: G -0.591 | D -0.635 | Q -0.698 | Y -0.232 | T -0.85 | A -0.585 | K -0.791 | I -0.669 | S -0.905 | M -0.063 | R -0.508 | V -0.912 | W -0.88 | E -0.689 | L -0.547 | F -0.403
Q61: I -0.254 | C -0.615 | G -0.639 | T -0.304 | H -0.248 | Y -0.227 | L -0.439 | R -0.296 | D -0.751 | S -0.248 | V -0.243 | N -0.359 | E -0.037 | F -0.909 | M -0.061 | P -0.666 | A -0.069 | W -0.699 | K -0.098
C58: W -0.723 | K -0.825 | P -1.04 | I -0.82 | V -0.944 | F -1 | L -0.769 | Q -0.848 | A -0.688 | Y -0.432 | D -0.719 | N -1.09 | E -0.925 | M -0.63 | G -0.822 | T -0.957 | R -0.771
G67: C -0.469 | P -0.562 | K -0.407 | V -0.673 | S -0.694 | E -0.525 | Y -0.854 | Q -0.604 | N -0.36 | R -0.584 | F -0.459 | H -0.714 | A -0.411 | D -0.441 | M -0.497 | I -0.74 | W -0.666 | L -0.808 | T -0.687
